Assays:
[1] = biological target: Programmed cell death protein 1 (PD1), human (human) (UniProt Q15116); test: cell-based or functional assay
[2] = biological target: Cytotoxic T-lymphocyte-associated protein 4 (CTLA4), human (human) (UniProt P16410); test: cell-based or functional assay

Substance: XmAb20717 (bispecific antibody)
- IL-2 secretion from SEB-stimulated human PBMC (ELISA), fold increase versus a mixture of XENP20111 and XENP20059 [1]: 1.6 fold
- IL-2 secretion from SEB-stimulated human PBMC (ELISA), fold increase versus a mixture of XENP20111 and XENP20059 [2]: 1.6 fold
